Assay results from paper doi:10.1101/2020.10.27.356691 (bioRxiv, 2020).

Biological target: T1, cytochrome P450 CYP124 from Mycobacterium tuberculosis (Mycobacterium tuberculosis, UniProt P9WPP3 1-428)
T1 sequence: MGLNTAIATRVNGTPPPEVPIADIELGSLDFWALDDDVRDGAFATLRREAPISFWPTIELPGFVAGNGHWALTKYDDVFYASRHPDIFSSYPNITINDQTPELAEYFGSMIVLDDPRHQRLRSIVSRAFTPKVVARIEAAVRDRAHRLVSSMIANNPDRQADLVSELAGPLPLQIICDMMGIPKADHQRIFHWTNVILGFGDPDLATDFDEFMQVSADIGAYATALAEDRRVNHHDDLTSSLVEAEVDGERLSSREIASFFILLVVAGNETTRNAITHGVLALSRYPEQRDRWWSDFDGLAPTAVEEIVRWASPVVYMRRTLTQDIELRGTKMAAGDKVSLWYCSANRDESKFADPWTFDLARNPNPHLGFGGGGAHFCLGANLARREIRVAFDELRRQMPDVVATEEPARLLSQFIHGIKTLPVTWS
Test: ITC

B1: rubredoxin B (RubB) from Mycobacterium tuberculosis, wild type (natural protein)
chain: MNDYKLFRCIQCGFEYDEALGWPEDGIAAGTRWDDIPDDWSCPDCGAAKSDFEMVEVARS
Question: How did the Kd turn out when B1 was run?
Answer: Its Kd is 12.8 µM.
